In assay [1] the target is HLA-DRB1*0101 (human). Nature of the assay: competition.
The target of assay [2] is HLA-DRB1*0101 (human). In words: competition binding.
For a further assay, the target named is HLA-DRB1*0401 (human). In words: competition binding.
The next assay has as its target HLA-DRB1*1501 (human). Nature of the assay: competition binding.
The target in a further assay is HLA-DRB5*0101 (human). Nature of the assay: competition binding.
A further assay concerns the target HLA-DRB4*0101 (human). Nature of the assay: competition binding.
The next assay has as its target HLA-DRB1*1301 (human). Nature of the assay: competition binding.
The target of the next assay is HLA-DRB1*0701 (human). Nature of the assay: competition binding.
For another assay, the target named is HLA-DRB1*1101 (human). Nature of the assay: competition binding.
For a further assay, the target named is HLA-DRB1*0301 (human). Nature of the assay: competition binding.
The target in the next assay is HLA-DRB3*0101 (human). Nature of the assay: competition binding.

A word on the IC50: it is the concentration that inhibits the measured activity by half. A low value points to greater potency in that assay.

B1: peptide p21 (residues 107-121 of HLA-A2) (peptide)
peptide: WRFLRGYHQYAYDGK
In the assay with HLA-DRB1*0101 [1], B1 yielded an IC50 of 1 nM.

B2: peptide p7 (residues 31-45 of HLA-A2) (peptide)
peptide: TQFVRFDSDAASQRM
For the molecule B2, the IC50 with HLA-DRB1*0101 [2] is 122 nM; in the assay with HLA-DRB1*0401, 354 nM; with HLA-DRB1*1501, 374 nM; with HLA-DRB5*0101, 1550 nM; in the assay with HLA-DRB4*0101, 2180 nM; in the assay with HLA-DRB1*1301 it was above 100000 nM. The IC50 is 786 nM with HLA-DRB1*0701, 4000 nM with HLA-DRB1*1101, 164 nM with HLA-DRB1*0301 and 456 nM with HLA-DRB3*0101.

These data come from patent US20110038881A1 (published 2011).
